{
  "source": "patent US20140079714A1",
  "about": "(published 2014)",
  "binders": {"B1": {"name": "Y61-L50Y (antibody, V domains shown)", "VH": "QVQLVQSGGGVVQPGRSLRLSCAASGFTFSSYGMHWVRQAPGKGLEWVAFIRYDGSNKYYADSVKGRFTISRDNSKNTLYLQMKSLRAEDTAVYYCKTHGSHDNWGQGTMVTVSS", "VL": "SYVLTQPPSVSGTPGQRVTISCSGGRSNIGSNTVKWYQQLPGTAPKLLIYYNDQRPSGVPDRFSGSKSGTSASLAITGVQAEDEADYYCQSYDRGTHPALLFGTGTKVTVLG"}, "B2": {"name": "Y61-L50Y* IgG (antibody, V domains shown)", "VH": "B1 VH", "VL": "B1 VL", "notes": "IgG"}, "B3": {"name": "Y61-L94Y IgG (antibody, V domains shown)", "VH": "B1 VH", "VL": "B1 VL with Y51G, G95Y", "notes": "IgG"}, "B4": {"name": "Y-61-L50Y-H31E**gG (antibody, V domains shown)", "VH": "B1 VH with S31E", "VL": "B1 VL", "notes": "also called Y61-L50Y-H31E IgG"}, "B5": {"name": "149-7 (antibody, V domains shown)", "VH": "TTHGSHDNWGQG", "VL": "QSYDRDFTGSRV"}},
  "key": {"[1]": {"target": "T1, human interleukin 12 (hIL-12), p70 heterodimer of p35 and p40 (human, UniProt P29459 23-219; P29460 23-328)", "T1 sequence (looked up) 1": "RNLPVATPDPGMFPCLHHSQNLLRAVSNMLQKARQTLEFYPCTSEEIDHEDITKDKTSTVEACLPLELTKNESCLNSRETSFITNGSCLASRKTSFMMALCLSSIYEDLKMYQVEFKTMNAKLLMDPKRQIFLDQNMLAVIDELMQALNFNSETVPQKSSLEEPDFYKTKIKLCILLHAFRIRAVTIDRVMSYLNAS", "T1 sequence (looked up) 2": "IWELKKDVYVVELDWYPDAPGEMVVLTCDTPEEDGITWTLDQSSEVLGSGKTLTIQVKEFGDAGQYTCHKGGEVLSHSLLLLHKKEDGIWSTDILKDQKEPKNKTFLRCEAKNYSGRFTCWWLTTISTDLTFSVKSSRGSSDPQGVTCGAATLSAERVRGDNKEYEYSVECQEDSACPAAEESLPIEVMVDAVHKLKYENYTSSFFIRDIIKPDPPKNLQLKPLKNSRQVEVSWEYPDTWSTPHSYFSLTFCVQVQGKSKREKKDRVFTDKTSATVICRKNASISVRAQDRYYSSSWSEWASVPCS", "test": "cell-based or functional assay"}, "[2]": {"target": "T1, human interleukin 12 (hIL-12), p70 …", "test": "RB assay: inhibition of IL-12 binding to its receptor"}, "[3]": {"target": "T1, human interleukin 12 (hIL-12), p70 …", "test": "koff, Table 2 (surface plasmon resonance per text)"}, "[4]": {"target": "T1, human interleukin 12 (hIL-12), p70 …", "test": "cell-based or functional assay", "remark": "listed apart in the source"}},
  "note": "Changes are numbered by the printed parent chain. In names and notes the source's numbering stands.",
  "data": [
    {"binder": "B1", "values": [
      {"measurement": "IFN gamma IC50", "setting": "[1]", "result": 20, "unit": "pM"},
      {"measurement": "IC50", "setting": "[2]", "result": 20, "unit": "pM"}
    ]},
    {"binder": "B2", "values": [
      {"measurement": "IFN gamma IC50", "setting": "[1]", "result": 30, "unit": "pM"},
      {"measurement": "PHA assay IC50", "setting": "[1]", "result": 20, "unit": "pM"},
      {"measurement": "koff", "setting": "[3]", "result": "6.98e-05", "unit": "s⁻¹"}
    ]},
    {"binder": "B3", "values": [
      {"measurement": "IFN gamma IC50", "setting": "[1]", "result": 40, "unit": "pM"},
      {"measurement": "PHA assay IC50", "setting": "[1]", "result": 50, "unit": "pM"},
      {"measurement": "koff", "setting": "[3]", "result": 0.000127, "unit": "s⁻¹"},
      {"measurement": "IC50", "setting": "[2]", "result": 60, "unit": "pM"}
    ]},
    {"binder": "B4", "values": [
      {"measurement": "IFN gamma IC50", "setting": "[1]", "result": 20, "unit": "pM"},
      {"measurement": "PHA assay IC50", "setting": "[1]", "result": 60, "unit": "pM"},
      {"measurement": "koff", "setting": "[3]", "result": "2.99e-05", "unit": "s⁻¹"}
    ]},
    {"binder": "B5", "values": [
      {"measurement": "PHA assay IC50 (M) p70:p40 1:0", "setting": "[4]", "result": "3.5e-09", "unit": "M"},
      {"measurement": "PHA assay IC50 (M) p70:p40 1:20", "setting": "[4]", "result": "2.5e-09", "unit": "M"},
      {"measurement": "PHA assay IC50 (M) p70:p40 1:50", "setting": "[4]", "result": "4e-09", "unit": "M"}
    ]}
  ]
}
